Residue numbers refer to the chain shown, from its start. Names and notes keep the numbering of the source.
Columns and labels:
[1] = biological target: T1, human ZNRF3 extracellular domain (hZNRF3 ECD) (human, UniProt Q9ULT6 56-219, biotinylated (His-Avi tag)); experiment: ELISA (binding specificity)
T1 construct: Expressed with a His-Avi tag at the N-terminus and biotinylated; also called ZRNF3
T1 sequence: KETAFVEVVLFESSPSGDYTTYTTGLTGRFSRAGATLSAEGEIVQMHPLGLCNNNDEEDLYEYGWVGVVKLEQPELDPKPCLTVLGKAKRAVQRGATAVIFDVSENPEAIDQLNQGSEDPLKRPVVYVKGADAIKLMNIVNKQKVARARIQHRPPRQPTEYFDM

[2] = biological target: T2, human RNF43 extracellular domain (hRNF43 ECD) (human, UniProt Q68DV7 44-197, biotinylated (His-Avi tag)); experiment: ELISA (binding specificity)
T2 construct: Expressed with a His-Avi tag at the N-terminus and biotinylated; also called human RNF3 (Q44-D198)
T2 sequence: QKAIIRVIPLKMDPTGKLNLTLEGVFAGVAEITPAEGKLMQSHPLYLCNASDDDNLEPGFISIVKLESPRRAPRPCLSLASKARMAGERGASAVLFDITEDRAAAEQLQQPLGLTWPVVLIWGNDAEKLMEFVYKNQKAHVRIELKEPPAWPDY

[3] = biological target: T1, human ZNRF3 extracellular domain …; experiment: BLI (Octet) KD grade: * = KD >= 1 uM
Method: (§1) Binding characterization of recombinant Fabs or IgG' s was carried out using Bio-Layer Interferometry (BLI) using the Octet Red 96 platform (PALL ForteBio, Fremont, Calif.) with streptavidin (SA) coated biosensors (PALL ForteBio,). […] Following immobilization, sensors were dipped into samples containing test molecules at seven concentrations. Values for KD were determined by fitting the resulting data with a 1:1 binding model.

[4] = biological target: T1, human ZNRF3 extracellular domain …; experiment: BLI (Octet), biotinylated antigen on SA sensor, 1:1 fit
Method: as §1

[5] = biological target: T3, human ASGR1 extracellular domain (hASGR1 ECD) (human, UniProt P07306 62-291, biotinylated (His-Avi tag)); experiment: BLI, Fab on hASGR1; KD only in the figure
T3 construct: His-Avi tag at the N-terminus, biotinylated for BLI; also called human ASGR1 ECD
T3 sequence: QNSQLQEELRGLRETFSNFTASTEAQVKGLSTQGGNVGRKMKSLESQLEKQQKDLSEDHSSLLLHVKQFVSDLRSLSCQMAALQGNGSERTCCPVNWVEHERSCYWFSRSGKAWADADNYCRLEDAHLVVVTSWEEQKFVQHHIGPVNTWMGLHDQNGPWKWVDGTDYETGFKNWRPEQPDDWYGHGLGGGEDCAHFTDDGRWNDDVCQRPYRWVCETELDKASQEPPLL

[6] = biological target: T4, Fc portion of human IgG1-fused LGR5-ECD (R&D systems) (human, UniProt O75473 22-557, limits assumed); experiment: BLI (Octet), LGR5-ECD-Fc on AHC sensor
T4 construct: extracellular domain; Bought reagent; also called LGRS; recombinant LGR5 protein; not shown: Fc portion of human IgG1
T4 sequence (looked up): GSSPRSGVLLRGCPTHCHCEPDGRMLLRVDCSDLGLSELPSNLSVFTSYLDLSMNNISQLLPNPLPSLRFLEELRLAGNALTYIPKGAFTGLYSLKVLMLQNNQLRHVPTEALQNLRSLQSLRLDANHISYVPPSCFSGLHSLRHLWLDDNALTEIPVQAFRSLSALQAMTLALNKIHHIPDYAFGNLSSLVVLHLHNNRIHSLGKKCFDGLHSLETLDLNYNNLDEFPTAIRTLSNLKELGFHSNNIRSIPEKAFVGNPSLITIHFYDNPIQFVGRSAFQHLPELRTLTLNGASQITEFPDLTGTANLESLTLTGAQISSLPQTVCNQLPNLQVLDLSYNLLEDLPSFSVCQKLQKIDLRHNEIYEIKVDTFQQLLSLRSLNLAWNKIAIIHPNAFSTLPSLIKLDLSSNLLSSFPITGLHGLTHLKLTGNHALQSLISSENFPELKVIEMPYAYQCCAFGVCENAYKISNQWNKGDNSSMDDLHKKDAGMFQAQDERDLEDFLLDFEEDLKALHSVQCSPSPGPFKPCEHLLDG
Method: Affinity measurement: Binding kinetics of the RSPO-derived proteins to LGRS, RNF43, or ZNRF3, and binding of the anti-ASGR Fabs to human and/or mouse ASGR1 were determined by bio-layer interferometry (BLI) using Octet Red 96 (PALL ForteBio, Fremont, CA) instruments at 30° C., 1000 rpm with either streptavidin (SA) or anti-hIgG Fc capture (AHC) biosensors. […] Following capture of ECDs of RNF43, ZNRF3 or LGRS, the biosensors were dipped into wells containing the relevant test molecules at 7 different concentrations in running buffer plus a well with only running buffer as a reference channel. KD was determined by steady-state analysis based on the average responses between 140 to 145 seconds of association phase, for binding to LGRS, RNF43, and ZNRF3. For the binding to ASGR, KD was determined by curve model fitting using the Octet® Red data analysis software (Fortebio)

[7] = biological target: human transferrin receptor 1 (TFR1), on cells (human, UniProt P02786 1-760); experiment: cell-based or functional assay
Sequence of human transferrin receptor 1 (TFR1), on cells (P02786 whole entry): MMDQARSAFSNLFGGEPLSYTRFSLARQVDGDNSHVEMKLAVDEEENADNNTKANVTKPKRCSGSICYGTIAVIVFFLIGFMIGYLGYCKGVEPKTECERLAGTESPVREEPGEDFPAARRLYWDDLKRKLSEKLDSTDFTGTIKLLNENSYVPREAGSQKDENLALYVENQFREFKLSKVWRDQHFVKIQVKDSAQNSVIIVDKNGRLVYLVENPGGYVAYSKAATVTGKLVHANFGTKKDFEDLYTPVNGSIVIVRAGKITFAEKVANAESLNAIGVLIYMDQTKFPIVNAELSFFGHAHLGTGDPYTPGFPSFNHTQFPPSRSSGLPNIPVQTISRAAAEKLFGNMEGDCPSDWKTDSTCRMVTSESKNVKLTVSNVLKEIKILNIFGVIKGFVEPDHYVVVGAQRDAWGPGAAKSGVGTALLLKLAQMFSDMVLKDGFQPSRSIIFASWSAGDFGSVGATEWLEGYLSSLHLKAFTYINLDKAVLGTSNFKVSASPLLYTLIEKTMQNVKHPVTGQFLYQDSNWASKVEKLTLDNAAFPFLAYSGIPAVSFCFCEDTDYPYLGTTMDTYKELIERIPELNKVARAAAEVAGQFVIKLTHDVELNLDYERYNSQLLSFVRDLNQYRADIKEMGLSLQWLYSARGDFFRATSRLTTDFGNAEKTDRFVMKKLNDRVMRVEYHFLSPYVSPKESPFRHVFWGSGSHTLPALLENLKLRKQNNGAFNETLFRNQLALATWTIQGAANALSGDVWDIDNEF

B1: 020S-F07 (antibody, V domains shown)
VH: EVQLLESGGGLVQPGGSLRLSCAASGFTFSNYAMGWVRQAPGKGLEWVSYISRSSSTIYYADSVKGRFTISRDNSKNTLYLQMNSLRAEDTAVYYCARRRDGYNWGYWGQGTLVTVSS
VL: DIQMTQSPSSLSASVGDRVTITCRASQDISNSLNWYQQKPGKAPKLLIYAASTLQSGVPSRFSGSGSGTDFTLTISSLQPEDFATYYCQQSYSPPHTFGGGTKVEIK
binding result [1]: binds
binding result [2]: binds

B2: 028S-E10 (antibody, V domains shown)
VH: QVQLVQSGAEVKKPGASVKVSCKASGYTFTSYYMHWVRQAPGQGLEWMGWINPNTGGTKSAQKFQGRVTMTRDTSTSTVYMELSSLRSEDTAVYYCARVLRGSLGFDYWGQGTLVTVSS
VL: B1 VL with N31R, S32Y, N34A, L54V, Q55E, S93R, P94S, H96Y, G100Q, V104L
KD [3]: ≥ 1 µM
Kd [4]: 4.16 µM

B3: 024S-D03 Fab (Fab, V domains shown)
VH: QVQLQQSGPGLVKPSQTLSLTCAISGDSVSSNSAAWNWMRQSPSRGLEWLGRTYYRSKWYNDYAVSVKSRMTINPDTSRNQFSLQLNSVTLEDTAVYYCARWNHEEHYFDYWGQGTLVTVSS
VL: EIVLTQSPATLSFSPGERATLSCRASQSVGSYLAWYQQRPGQAPRPLIYDATNRATGIPTRFSGSGSGTDFTLTISSLEPEDFATYYCQHRRTFGRGTKLEIK
notes: Tested as Fab, identified by phage display
binding result [5]: binds

B4: 024S-A04 Fab (Fab, V domains shown)
VH: QVQLQQSGPGLVKPSQTLSLTCAISGDSVSSNSVAWNWMRQSPSRGLEWLGRTYYRSKWYYDYAVSVKSRITINPDTSKNQFSLQLNSVTPEDTAVYYCASWTRGAFDIWGQGTMVTVSS
VL: B3 VL with E1D, V3Q
notes: as for B3
binding result [5]: binds

B5: 024S-E03 Fab (Fab, V domains shown)
VH: B3 VH with D27A, M39I, M71I, R79K, L91P, E92G
VL: B3 VL with E1D, I2V, L4M
notes: as for B3
binding result [5]: binds

B6: 028S-A09 (antibody, V domains shown)
VH: QVQLVQSGAEVKKPGASVKVSCKASGYRFTSYYLHWVRQAPGQGLEWMGWMNPKSGGTNYAQKFQGRVTMTRDTSTSTVYMELSSLRSEDTAVYYCARGGRSYGYWYFDLWGRGTLVTVSS
VL: EIVMTQSPATLSVSPGERATLSCRASQSVDSSYLAWYQQKPGQAPRLLIYAASARAAGIPARFSGSGSGTEFTLTISSLQSEDFAVYYCQQYYRSPPTFGQGTRLEIK
KD [3]: ≥ 1 µM
Kd [4]: 12.5 µM

B7: 020S-D07 (antibody, V domains shown)
VH: QVQLVQSGAEVKKPGSSVKVSCKASGGTFSNTDINWVRQAPGQGLEWMGGIIPIFGTANYAQKFQGRVTITADESTSTAYMELSSLRSEDTAVYYCVGGRSGWIWYFDLWGRGTLVTVSS
VL: DIQMTQSPSSLSASVGDRVTITCRASQSISRWLAWYQQKPGKAPKLLIYDASSLETGVPSRFSGSGSGTDFTLTISSLQPEDFATYYCQQAYSFPWTFGQGTKVEIK
binding result [1]: binds
binding result [2]: binds

B8: 028S-E08 (antibody, V domains shown)
VH: EVQLLESGGGLVQPGGSLRLSCAASGFSFSNYAMSWVRQAPGKGLEWVSAISGSGRTTYYADSVKGRFTISRDNSKNTLYLQMNSLRAEDTAVYYCARRTSSFSLWGQGTLVTVSS
VL: B7 VL with S30N, R31N, D50K, T56S, Y92N, S93T, W96I, K103R, V104L
KD [3]: ≥ 1 µM
Kd [4]: 3.9 µM

B9: αGFP-RSPO2-5mut (anti-GFP, RSPO2 (R65A/R69A/Q70A/F105A/F109A)) (other)
chain: QVQLVESGGGLVQPGGSLRLSCAASGFTFSRYGMHWVRQAPGKGLEWVSGISSIGSNTYYADSVKGRFTISRDNSKNTLYLQMNSLRAEDTAVYYCARWYKTYIDVWGQGTLVTVSSGGGGSGGGGSGGGGSDIELTQPPSVSVAPGQTARISCSGDNLGKKYVYWYQQKPGQAPVLVIYGDDERPSGIPERFSGSNSGNTATLTISGTQAEDEADYYCASYDSSHILIVFGGGTKLTVLGSGGSNPICKGCLSCSKDNGCSRCQQKLFFFLRAEGMAAYGECLHSCPSGYYGHRAPDMNRCARCRIENCDSCRSKDACTKCKVGFYLHRGRCFDECPDGFAPLEETMECVEGGDYKDDDDKGSHHHHHHHH
notes: scFv against GFP fused to the RSPO2 Fu1-Fu2 fragment with five mutations; FLAG-His tag; also called αGFP-RSPO2-Smut
binding result [6]: no binding

B10: αTFR1-RSPO2-RA (anti-TFR1, RSPO2 (F105R/F109A)) (other)
chain: QVQLQQSGPELVRPGVSVKISCKGSGYTFTDYAMHWVKQSHAKSLEWIGGISTYFGRTNYNQKFKGRATMTVDKSSSTAYMELARLTSEDSALYYCARGLSGNYVMDYWGQGTSVTVSSGGGGSGGGGSGGGGSDIVLFQSPASLAVSLGQRATISCRASESVDDYGNSFMHWYQQKPGQPPKLLIYRASNLESGIPARFSGSGSRTDFTLTINPVEADDVATYYCQQSNEAPPTFGGGTKLEIRGSGGSNPICKGCLSCSKDNGCSRCQQKLFFFLRREGMRQYGECLHSCPSGYYGHRAPDMNRCARCRIENCDSCRSKDACTKCKVGFYLHRGRCFDECPDGFAPLEETMECVEGGDYKDDDDKGSHHHHHHHH
notes: FLAG-His tag; also called αTFR-RSPO2-RA
potency in the HEK293 STF reporter assay with Wnt sources [7]: ~20 fold
binding result [6]: no binding

B11: αTFR1-RSPO2-WT (anti-TFR1, RSPO2 wild type) (other)
chain: B10 chain with R319F, A323F
EC50 in the HEK293 STF reporter assay with Wnt sources [7]: ~20 fold
potency in the HEK293 STF reporter assay with Wnt sources [7]: ~400 fold

B12: 028S-D02 (antibody, V domains shown)
VH: QVQLQQSGPGLVKPSQTLSLTCAISGDSVSSNSAAWYWIRQSPSRGLEWLGRTYYRSKWYHDYAVSVKSRITINADTSKNQFSLQLNSVTPEDTAVYYCARVVRAVDAFDIWGQGTMVTVSS
VL: ETTLTQSPGTLSLSPGERATLSCRASQSVNSRYLAWYQQKPGQAPRLLIYGASSRATGIPDRLTGSGSGTDFTLTISRLEPEDFAVYYCQQYGSSRLTFGGGTKVEIK
KD [3]: ≥ 1 µM
Kd [4]: 3.32 µM
